B8: human BCMA on NCI-H929 cells (receptor)
chain: MLQMAGQCSQNEYFDSLLHACIPCQLRCSSNTPPLTCQRYCNASVTNSVKGTNAILWTCLGLSLIISLAVFVLMFLLRKINSEPLKDEFKNTGSGLLGMANIDLEKSRTGDEIILPRGLEYTVEECTCEDCIKSKPKVDSDHCFPLPAMEEGATILVTTKTNDYCKSLPAALSATEIEKSISAR
notes: BCMA-positive human multiple myeloma cell line NCI-H929 (ATCC CRL-9068); also called B-cell maturation antigen; CD269

Assays:
[1] = target: B8; test: flow cytometry on NCI-H929 cells, yeast-expressed antibody
Experimental: The method is specifically as follows: [0293] 1. A human NCI-H929 (ATCC, CRL-9068) cell suspension was taken, adjusted to a cell density of 2×10⁶ cells/mL, and added to a 96-well microplate at 100 μL/well. The cell suspension was centrifuged at 400 G for 5 min and the supernatant was removed. [0294] 2. The anti-BCMA antibody solution was serially diluted in 3-fold gradient in PBS containing 0.1% bovine serum albumin (BSA) from a concentration of 400 nM for a total of 12 points, 100 μL of the dilution of the antibody was added to each well, and then the plate was incubated at 4° C. for 30 min [0295] 3. The mixture was centrifuged at 400 G for 5 min, and washed twice with PBS, and […] of a dilution of a secondary antibody (a phycoerythrin (PE) labeled goat anti-human IgG antibody, SouthernBiotech, final concentration: 5 μg/mL) in PBS (1% BSA) was added to each well. The plate was incubated at 4° C. for 30 min (in the dark). [0296] 4. Then the resulting solution was centrifuged at 400 G for 5min, and washed twice with PBS, and the cells were resuspended with 100 μL of PBS per well. Flow cytometry was performed on an Accuri C6 system (BD Bioscience) to detect PE positive signals, and MFI was calculated based on C6 software. The EC50 values were calculated using GraphPad software.

ADI-34848 scFv-hFc [2] = test: BLI (ForteBio Octet Red96), scFv-hFc on AHC sensors, human BCMA-His in solution
Experimental: The kinetic constants of the antibody molecules were determined based on the biofilm layer interferometry (BLI) of a fiber optic biosensor.
The Fortebio instrument model used in the experiment was Octet Red96, and a ForteBio affinity assay was performed according to the existing method (Estep, P et al., High throughput solution Based measurement of antibody-antigen affinity and epitope binning MAbs, 2013.5 (2): p. 270-8). The assay is specifically as follows: [0317] 1. Half an hour before the experiment, an appropriate number of AHC sensors were taken according to the number of samples and soaked in the SD buffer (50 mL PBS+0.1% BSA +0.05% Tween-20). [0318] 2. SD buffer, scFv-hFc antibodies and human BCMA-His antigens (ACRO BIOSYSTEMS, BCA-H522Y), each of 100 μL were added to a 96-well half-area black polystyrene microplate respectively. [0319] 3. The plates were arranged according to the positions of the samples, the positions of the sensors were selected, and the operation procedures were set as: Baseline, Loading ˜1 nm, Baseline, Association, and Dissociation, each running for a time depending on the binding and dissociation rates of the sample, at a rotation speed of 1,000 rpm and a temperature of 30° C. [0320] 4.

ADI-34848 scFv-hFc [3] = test: flow cytometry on NCI-H929 cells, scFv-hFc

B1: ADI-34846 (antibody, V domains shown)
VH: QVQLVQSGAEVKKPGSSVKVSCKASGGTFSNYAISWVRQAPGQGLEWMGGIIPIFGTANYAQKFQGRVTITADESTSTAYMELSSLKSEDTAVYYCARGSGYYSSWLFDIWGQGTMVTVSS
VL: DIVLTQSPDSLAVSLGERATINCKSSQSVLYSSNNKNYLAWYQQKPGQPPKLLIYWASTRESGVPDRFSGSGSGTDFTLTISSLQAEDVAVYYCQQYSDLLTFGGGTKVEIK
notes: Yeast-expressed fully human antibody purified on protein A
In the case of B1, the EC50 [1] is reported as 136 nM.

B2: ADI-34860 (antibody, V domains shown)
VH: QLQLQESGPGLVKPSETLSLTCTVSGGSISSSSYYWGWIRQPPGKGLEWIGSISYSGSTYYNPSLKSRVTISVDTSKNQFSLKLSSVTAADTAVYYCARDRGDTILDVWGQGTMVTVSS
VL: DIQMTQSPSSLSASVGDRVTITCRASQSISSYLNWYQQKPGKAPKLLIYAASSLQSGVPSRFSGSGSGTDFTLTISSLQPEDFATYYCQQKYDLLTFGGGTKVEIK
notes: as for B1
B2 was tested, and the EC50 [1] was 144 nM.

B3: ADI-34861 (antibody, V domains shown)
VH: QLQLQESGPGLVKPSETLSLTCTVSGGSISSSSYYWGWIRQPPGKGLEWIGSISYSGSTYYNPSLKSRVTISVDTSKNQFSLKLSSVTAADTAVYYCARDRGDTILDVWGQGTMVTVSS
VL: DIQMTQSPSSLSASVGDRVTITCRASQSISRYLNWYQQKPGKAPKLLIYAASSLQSGVPSRFSGSGSGTDFTLTISSLQPEDFATYYCQQKYFDITFGGGTKVEIK
notes: as for B1
B3 showed an EC50 [1] of 65.1 nM.

B4: human BCMA-His (receptor)
chain: MLQMAGQCSQNEYFDSLLHACIPCQLRCSSNTPPLTCQRYCNASVTNSVKGTNA
notes: Bought antigen (ACRO BIOSYSTEMS, BCA-H522Y); probably only the extracellular domain stood in the assay; also called hBCMA-His; monovalent human BCMA; not shown: His tag
With B4 the Kd (ADI-34848 scFv-hFc [2]) was 71.1 nM, the koff (ADI-34848 scFv-hFc [2]) was 0.0145 s⁻¹ and the kon (ADI-34848 scFv-hFc [2]) was 204000 M⁻¹ s⁻¹.

B5: ADI-34832 (antibody, V domains shown)
VH: QITLKESGPTLVKPTQTLTLTCTFSGFSLSTSGVGVGWIRQPPGKALEWLALIYWNDEKRYSPSLKSRLTITKDTSKNQVVLTMTNMDPVDTAVYYCARDPGEQLQVFDYWGQGTLVTVSS
VL: DIQMTQSPSSVSASVGDRVTITCRASQGISSWLAWYQQKPGKAPKLLIYAASSLQSGVPSRFSGSGSGTDFTLTISSLQPEDFATYYCQQTLSLPITFGGGTKVEIK
notes: as for B1
B5 gave an EC50 [1] of 34.1 nM.

B6: ADI-34859 (antibody, V domains shown)
VH: QLQLQESGPGLVKPSETLSLTCTVSGGSISSSSYYWGWIRQPPGKGLEWIGSISYSGSTYYNPSLKSRVTISVDTSKNQFSLKLSSVTAADTAVYYCARDRGDTILDVWGQGTMVTVSS
VL: DIQMTQSPSSLSASVGDRVTITCRASQSINSYLNWYQQKPGKAPKLLIYAASSLQSGVPSRFSGSGSGTDFTLTISSLQPEDFATYYCQQKASAPITFGGGTKVEIK
notes: as for B1
B6 gave an EC50 [1] of 85.8 nM.

B7: ADI-34857 (antibody, V domains shown)
VH: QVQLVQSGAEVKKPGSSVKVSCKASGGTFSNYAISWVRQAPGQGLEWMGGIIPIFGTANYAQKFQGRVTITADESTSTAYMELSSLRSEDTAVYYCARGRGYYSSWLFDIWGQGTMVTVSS
VL: DIQMTQSPSSLSASVGDRVTITCQASQDITNYLNWYQQKPGKAPKLLIYDASNLETGVPSRFSGSGSGTDFTFTISSLQPEDIATYYCQQAFDLITFGGGTKVEIK
notes: as for B1
B7 showed an EC50 [1] of 25.2 nM.

B8: binds (ADI-34848 scFv-hFc [3]).

B9: ADI-34848 (antibody, V domains shown)
VH: EVQLLESGGGLVQPGGSLRLSCAASGFTFDDYAMHWVRQAPGKGLEWVSGISWSSGSIGYADSVKGRFTISRDNAKNSLYLQMNSLRAEDTAVYYCAKDSPRRDSFGSIAFDIWGQGTMVTVSS
VL: not shown
notes: as for B1
B9 showed an EC50 [1] of 24.8 nM.

B10: ADI-34849 (antibody, V domains shown)
VH: EVQLVESGGGLVQPGRSLRLSCAASGFTFDDYAMHWVRQAPGKGLEWVSGISWSSGSIGYADSVKGRFTISRDNAKNSLYLQMNSLRAEDTAVYYCAKDSPRRDSFGSIAFDIWGQGTMVTVSS
VL: EIVLTQSPATLSLSPGERATLSCRASQSVSSYLAWYQQKPGQAPRLLIYDASKRATGIPARFSGSGSGTDFTLTISSLEPEDFAVYYCQQASALPLTFGGGTKVEIK
notes: as for B1
In the case of B10, the EC50 [1] is reported as 9.11 nM.

B11: ADI-34850 (antibody, V domains shown)
VH: EVQLVESGGGLVQPGRSLRLSCAASGFTFDDYAMHWVRQAPGKGLEWVSGISWSSGSIGYADSVKGRFTISRDNAKNSLYLQMNSLRAEDTAVYYCAKDSPRRDSFGSIAFDIWGQGTMVTVSS
VL: EIVMTQSPATLSVSPGERATLSCRASQSVGSNLAWYQQKPGQAPRLLIYGASTRATGIPARFSGSGSGTEFTLTISSLQSEDFAVYYCQQSVNLPITFGGGTKVEIK
notes: as for B1
Work on B11 yielded an EC50 [1] of 12.1 nM.

B12: ADI-34854 (antibody, V domains shown)
VH: QVQLVESGGGVVQPGRSLRLSCAASGFTFSSYGMHWVRQAPGKGLEWVAVISYEGSNKYYADSVKGRFTISRDNSKNTLYLQMNSLRAEDTAVYYCARDTSSYGDASYGMDVWGQGTTVTVSS
VL: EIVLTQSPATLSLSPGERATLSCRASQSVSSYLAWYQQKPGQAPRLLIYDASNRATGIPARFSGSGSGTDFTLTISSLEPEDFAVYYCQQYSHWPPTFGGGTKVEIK
notes: as for B1
B12 gave an EC50 [1] of 83.2 nM.

— patent US20200339699A1 (Innovent, published 2020)
